To fix the notation:
B1: 34P, 72A (protein, listed as Rattus norvegicus)
chain: AFDGTWKVDRNENYEKFMEKMGINVVKRKLGAHPNLKLTITQEGNKFTVKESSNFRNIDVVFELGVDFAYSAADGTELTGTWTMEGNKLVGKFKRVDNGKELIAVREISGNELIQTYTYEGVEAKRIFKKE
modifications: PEPTIDE (1)...(131) wild-type rat intestinal fatty acid binding protein
B2: 36A, 72A (protein, listed as Rattus norvegicus)
chain: B1 chain with P34D, L36A
modifications: PEPTIDE (1)...(131) wild-type rat intestinal fatty acid binding protein
B3: 34S, 72A (protein, listed as Rattus norvegicus)
chain: B1 chain with P34S
modifications: PEPTIDE (1)...(131) wild-type rat intestinal fatty acid binding protein
B4: 36E2, 72A (protein, listed as Rattus norvegicus)
chain: B1 chain with P34D, L36E
modifications: PEPTIDE (1)...(131) wild-type rat intestinal fatty acid binding protein
B5: 34R, 72A (protein, listed as Rattus norvegicus)
chain: B1 chain with P34R
modifications: PEPTIDE (1)...(131) wild-type rat intestinal fatty acid binding protein
B6: 34V, 72A (protein, listed as Rattus norvegicus)
chain: B1 chain with P34V
modifications: PEPTIDE (1)...(131) wild-type rat intestinal fatty acid binding protein
B7: 36G2, 72A (protein, listed as Rattus norvegicus)
chain: B1 chain with P34D, L36G
modifications: PEPTIDE (1)...(131) wild-type rat intestinal fatty acid binding protein
B8: 34T, 72A (protein, listed as Rattus norvegicus)
chain: B1 chain with P34T
modifications: PEPTIDE (1)...(131) wild-type rat intestinal fatty acid binding protein
B9: 34Q, 72A (protein, listed as Rattus norvegicus)
chain: B1 chain with P34Q
modifications: PEPTIDE (1)...(131) wild-type rat intestinal fatty acid binding protein
B10: 36H1, 72A (protein, listed as Rattus norvegicus)
chain: B1 chain with P34D, L36H
modifications: PEPTIDE (1)...(131) wild-type rat intestinal fatty acid binding protein
B11: 36F1, 72A (protein, listed as Rattus norvegicus)
chain: B1 chain with P34D, L36F
modifications: PEPTIDE (1)...(131) wild-type rat intestinal fatty acid binding protein
B12: 36D1, 72A (protein, listed as Rattus norvegicus)
chain: B1 chain with P34D, L36D
modifications: PEPTIDE (1)...(131) wild-type rat intestinal fatty acid binding protein
B13: 34W, 72A (protein, listed as Rattus norvegicus)
chain: B1 chain with P34W
modifications: PEPTIDE (1)...(131) wild-type rat intestinal fatty acid binding protein
B14: 34Y, 72A (protein, listed as Rattus norvegicus)
chain: B1 chain with P34Y
modifications: PEPTIDE (1)...(131) wild-type rat intestinal fatty acid binding protein
B15: 36C3, 72A (protein, listed as Rattus norvegicus)
chain: B1 chain with P34D, L36C
modifications: PEPTIDE (1)...(131) wild-type rat intestinal fatty acid binding protein

Residue numbers refer to the chain shown, from its start. Where “and” joins values, the source holds several entries; their conditions need not be identical. Identical values can stand only once.

One assay can be described thus: Probe fluorescence ratio response to linolenic acid relative to ADIFAB2. The settings on record: response relative to ADIFAB2. In kind it is binding. In a few lines: (§1)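 Each fatty acid's response was expressed relative to ADIFAB2, the rI-FABP-L72A probe, as ΔR/ΔRreference. ΔR is the change in the background-corrected two-wavelength intensity ratio R=Fλ1/Fλ2 from its analyte-free baseline R0. Emission was read near about 420-480 nm for unbound and about 495-580 nm for FFA-bound probe.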
Regarding B1, the “DR/DR LNA” value was 0.76.
Consider B2, for which the “DR/DR LNA” value is given as 0.50.
On to B3, for which the “DR/DR LNA” value was determined as 0.59.
Regarding B4, the “DR/DR LNA” value is listed as 0.23.
Still for that read-out and setting: then B5, with 0.47; and B6, with 1.21; and B7, with 1.16.
On the same count and under the same terms, then B8, with 0.67.
Turning to B9, the “DR/DR LNA” value was 0.48.
In the case of B10, the “DR/DR LNA” value was found to be 0.86.
With B11, the “DR/DR LNA” value is listed as 0.66.
B12: the “DR/DR LNA” value turned out to be 0.21.
Turning to B13, the “DR/DR LNA” value is 1.37 and 1.130.
Regarding B14, the “DR/DR LNA” value amounted to 1.22.
Turning to B15, the “DR/DR LNA” value is recorded as −0.30.

Another assay in a line: Probe fluorescence ratio response to arachidonic acid relative to ADIFAB2. Conditions: arachidonic acid; response relative to ADIFAB2. The assay is classed as binding. An outline of the steps: as §1
Regarding B1, the “DR/DR AA” value is on record as 0.46.
For B2, the “DR/DR AA” value is recorded as 0.53.
Take B3: the “DR/DR AA” value was found to be 0.58.
The same measure, in the same setting: then B4, with 0.24; and B5, with 0.41.
With B6, the “DR/DR AA” value came to 1.22.
Take B7: the “DR/DR AA” value is recorded as 1.00.
As for B8, the “DR/DR AA” value was found to be 0.61.
Regarding B9, the “DR/DR AA” value is 0.52.
The same measure, in the same setting: then B10, with 0.76.
Same read-out and setting: next, B11: 0.66.
Take B12: the “DR/DR AA” value is listed as 0.20.
Still for that read-out and setting: then B13, with 1.31 and 1.060; and B14, with 1.22; and B15, with −0.22.

The next assay can be described thus: Probe fluorescence ratio response to oleic acid relative to ADIFAB2. In kind it is binding. Conditions: response relative to ADIFAB2. In a few lines:
as §1
On to B1, for which the “DR/DR OA” value is given as 0.46.
On to B2, for which the “DR/DR OA” value is reported as 0.46.
Consider B3, for which the “DR/DR OA” value is 0.58.
For the molecule B4, the “DR/DR OA” value was determined as 0.20.
On the same count and under the same terms, next, B5: 0.44.
On to B6, for which the “DR/DR OA” value was determined as 1.19.
Turning to B7, the “DR/DR OA” value amounted to 0.97.
With B8, the “DR/DR OA” value was found to be 0.53.
For the molecule B9, the “DR/DR OA” value was 0.44.
B10: the “DR/DR OA” value came to 0.77.
B11: the “DR/DR OA” value was 0.55.
As to B12, the “DR/DR OA” value is on record as 0.20.
B13: the “DR/DR OA” value is 1.38 and 1.210.
Same read-out and setting: next, B14: 1.19; B15: −0.40.

A short description of another assay: Probe fluorescence ratio response to linoleic acid relative to ADIFAB2. In kind it is binding. Conditions: response relative to ADIFAB2. In a few lines: as §1
Turning to B1, the “DR/DR LA” value is on record as 0.66.
B2: the “DR/DR LA” value is 0.51.
Same read-out and setting: next, B3: 0.65; B4: 0.25; B5: 0.61.
For the molecule B6, the “DR/DR LA” value came to 1.15.
Regarding B7, the “DR/DR LA” value was 1.17.
With B8, the “DR/DR LA” value came to 0.64.
For B9, the “DR/DR LA” value is listed as 0.56.
Consider B10, for which the “DR/DR LA” value was found to be 0.81.
Turning to B11, the “DR/DR LA” value is on record as 0.67.
For B12, the “DR/DR LA” value came out at 0.27.
As to B13, the “DR/DR LA” value is 1.34 and 1.110.
Consider B14, for which the “DR/DR LA” value was 1.24.
Consider B15, for which the “DR/DR LA” value is −0.36.

A further assay is described as follows: Probe fluorescence ratio response to palmitic acid relative to ADIFAB2. The assay is classed as binding. Conditions: response relative to ADIFAB2. In a few lines:
as §1
Regarding B1, the “DR/DR PA” value is recorded as 0.35.
B2: the “DR/DR PA” value came to 0.46.
Consider B3, for which the “DR/DR PA” value is given as 0.43.
Consider B4, for which the “DR/DR PA” value is on record as 0.19.
The same measure, in the same setting: next, B5: 0.30; B6: 1.11.
As for B7, the “DR/DR PA” value is 0.55.
Still for that read-out and setting: next, B8: 0.40; B9: 0.36.
The same measure, in the same setting: then B10, with 0.40; and B11, with 0.52; and B12, with 0.18.
Same read-out and setting: next, B13: 0.93 and 0.920; B14: 1.06.
Regarding B15, the “DR/DR PA” value is −0.21.

(Values after patent US20060257938A1, “Method of screening for drugs that block ligand binding to a lipid binding protein” (priority 2005, published 2006).)
